Source: the DeepSol protein solubility set

Assay: soluble on expression in E. coli; label from the status in PepcDB or PDB records

| Sequence | soluble on expression in E. coli |
| --- | --- |
| MTEEFNESMINDIKEGDKVTGEVQQVEDKQVVVHINGGKFNGIIPISQLSTHHIDSPSEVVKEGDEVEAYVTKVEFDEENETGAYILSRRQLETEKSYSYLQEKLDNNEIIEAKVTEVVKGGLVVDVGQRGFVPASLISTDFIEDFSVFDGQTIRIKVEELDPENNRVILSRKAVEQEENDAKKDQLLQSLNEGDVIHGKVARLTQFGAFIDIGGVDGLVHVSELSHEHVQTPEEVVSIGQDVKVKIKSIDRDTERISLSIKDTLPTPFENIKGQFHENDVIEGVVVRLANFGAFVEIAPGVQGLVHISEIAHKHIGTPGEVLEPGQQVNVKILGIDEENERVSLSIKATLPNEDVVESDPSTTKAYLENEEEDNPTIGDMIGDKLKNLKLLEHHHHHH | soluble |
| MTEFDNLTWLHGKPQGSGLLKANPEDFVVVEDLGFTPDGEGEHILLRILKNGCNTRFVADALAKFLKIHAREVSFAGQKDKHAVTEQWLCARVPGKEMPDFSAFQLEGCKVLEYARHKRKLRLGALKGNAFTLVLREISDRRDVETRLQAIRDGGVPNYFGAQRFGIGGSNLQGALRWAQSNAPVRDRNKRSFWLSAARSALFNQIVHQRLKKPDFNQVVDGDALQLAGRGSWFVATSEELPELQRRVDEKELMITASLPGSGEWGTQRAALAFEQDAIAQETVLQSLLLREKVEASRRAMLLYPQQLSWNWWDDVTVELRFWLPAGSFATSVVRELINTMGDYAHIAE | not soluble |
| MTEFTPFFDGSNQLNYLKFVILRFHGVSKRKICKMYNFAYFRILEVCEMAKKNDYRFTYKDYKFLKQYGVSNTFICKMYHISIEDLEFFEVMNR | not soluble |
| MTEKSIDLSVDIAGLRLSNPVIAASGTFGFGREFVDYVDLNKIGGISVKGLTLEKRQGNRPPRIAETPAGILNSVGLQNPGVRAFIENEIPFLRKYNTKIIANIAGNTIEDYCKMAELLSDADIDAIELNVSCPNVKKGCVAFGNSPAGISEITSKVKKYCKKPLIVKLTPNVTDIKEIAVAAEAAGADALSLINTILGMAIDIHRKRPILANNVGGLSGPAVKPIAVRMVYEVCSVVKIPVIGMGGISSGEDAVEFMLAGASAVMVGTANFINPAACIDVVEGIKNYLKMYNHGSVYEIIGKLQLN | not soluble |
| MTELEEIGININSIENTEQIISQLMDNYSDDVLHLVFSYVKNRTTAEDLTQEIFIKCYEKLDQFNNKSSIKTWLYRIAINHCKDYLGSWHYRKLNFSEKIWNYLPSKSKHVEEEIIAKDVANSLMSAVMDLPVKYREVVFLHYYEELSLANISKITGVNSNTLKTRLKHARELLKTKMKKEV | not soluble |
| MTEPKKEIIEDENHGISKKIPTDPRQYEKVTEGCRLLVMMASQEEERWAEVISRCRAANGSIKFYVHYIDCNRRLDEWVQSDRLNLASCELPKKGGKKGAHLREENRDSNENEGKKSGRKRKIPLLPMDDLKAESVDPLQAISTMTSGSTPSLRGSMSMVGHSEDAMTRIRNVECIELGRSRIQPWYFAPYPQQLTSLDCIYICEFCLKYLKSKTCLKRHMEKCAMCHPPGNQIYSHDKLSFFEIDGRKNKSYAQNLCLLAKLFLDHKTLYYDTDPFLFYVLTEEDEKGHHIVGYFSKEKESAEEYNVACILVLPPFQKKGYGSLLIEFSYELSKIEQKTGSPEKPLSDLGLLSYRSYWSMAIMKELFAFKRRHPGEDITVQDISQSTSIKREDVVSTLQQLDLYKYYKGSYIIVISDEKRQVYEKRIEAAKKKTRINPAALQWRPKEYGKKRAQIMF | not soluble |
| MTESAPSAFFTTSTPADHVHEEESSNTGYFENLPENDIHSFFEIDATSEWIKQGNHQRIALQFPDSLLPYSEKVTKLIESRFRSESAKKTFVLADTSYRSCCVDEVAAAHADCTALVHFGEACHSAPTDKIDVKYVLGSMPIFIDQFRMEFQNVADQLTAEHIVLLMDSCFSHEQEKVAAVIKEVLPGNRHVECSLLPSEDVLKQNRQNIYLGREIPSCLRNNQPTDLIFCGFPNSPLLPIWLLSYPSCSTVSHFNPINKTIQHESTRSSRLLRKRLFLVEKLKDADTVGLVVGSVGVDKHREAVKRMREMCKKAGKKIYVISVGKINVPKLSNFSTDIDVFVLLSCPFGVVLDSSDYFRPVVSYFEAEIALNPAKTWAADFGWSAEFAAFLEDKIETEVPDDKAAGDFSLISGKVRVQKTEEEKNGDGPSSVAIYNPGYCNDRTWKGLNDGVSTAEDSTKMGEGRSGIAQGYSGK | not soluble |
| MTETPMMDDLERVLYNQDDIQKRIRELAAELTEFYEDKNPVMICVLTGAVFFYTDLLKHLDFQLEPDYIICSSYSGTKSTGNLTISKDLKTNIEGRHVLVVEDIIDTGLTMYQLLNNLQMRKPASLKVCTLCDKDIGKKAYDVPIDYCGFVVENRYIIGYGFDFHNKYRNLPVIGILKESVYT | soluble |
| MTFAWGRGSHGGAGMRIVQITDTHFSPTKAHFNGNWAPLAAWIEQSGADLVIHTGDLSVDGADRDDDIAFCMDLMREISAPMLLVPGNHDVGHLPGSLQPVNAGRLERWRRLVGPDYWMEDAGSWRLIGLDSLLMGFDDAEEEAQFDWLRTVLESRGGRRVALFAHKPLFVDAPGEGDTGYWSVRPAQRQRLYDLIATHDVALFASGHLHRAWQGKYENTSLVWGPSAAFVVGDMERDMPGERLLGAVIHQFSDTVTSEIVAIPGMTAYVLDDVVAEVYPHEAHKARKRVASLEHHHHHH | not soluble |
| MTFFPEIDIQKTKSNAKRKLREYPRWRRIANDVDTQKVTATYSFEPRQSHGVPSKPVERLALNRVSAEQELDAIEQAVSMILEPERRRILYDKYLAPYKKADKVIYTELCMSESFYYDTLDIALLAFAELYREGVLLVEEGVFS | not soluble |
| MTFMKLYFFGDDNNKPKLSEHLIIYILSLLDPKSQSVASLVNKDWSRLVQLTRQYLSMLPVIHRIPLFANLGLDVLKLKLMTGGMTNSTVRLRIKNAPEKWVMRIPGIGSSAFITRRDEAHNAKQAEKLGLNVPIAFFDPEDGLQVTRFIEGVHSLDDKALARKEILHEVASMMRRLHKSPPFDNNTLFFERNEELLDLLKRKPFNFPGEIEFVEQQMKNLKEIFSSYHIQQFPCHNDTTPLNFILSENPEIKGSEKIHQIDWEYSSNNDFIWDLVYFMVEAKLNREQQLILLKAYFNTEELSDSLLAWIEVYKPIIEWWITIWSWTQLANGANAVDLSSYEQLGLERYHNTLSHLKSEDYVKALALIEADSHSLTFTGQRPF | not soluble |
| MTFSLFGDKFTRHSGITLLMEDLNDGLRTPGAIMLGGGNPAQIPEMQDYFQTLLTDMLESGKATDALCNYDGPQGKTELLTLLAGMLREKLGWDIEAQNIALTNGSQSAFFYLFNLFAGRRADGRVKKVLFPLAPEYIGYADAGLEEDLFVSARPNIELLPEGQFKYHVDFEHLHIGEETGMICVSRPTNPTGNVITDEELLKLDALANQHGIPLVIDNAYGVPFPGIIFSEARPLWNPNIVLCMSLSKLGLPGSRCGIIIANEKIITAITNMNGIISLAPGGIGPAMMCEMIKRNDLLRLSETVIKPFYYQRVQETIAIIRRYLPEDRCLIHKPEGAIFLWLWFKDLPITTEQLYQRLKARGVLMVPGHNFFPGLDKPWPHTHQCMRMNYVPEPEKIEAGVKILAEEIERAWAESH | soluble |
| MTFVPLNPIPLKDRTSMIFLQYGQIDVLDGAFVLIDKTGIRTHIPVGSVACIMLEPGTRVSHAAVRLASTVGTLLVWVGEAGVRVYSSGQPGGARADKLLYQAKLALDDDLRLKVVRKMYELRFREPPPARRSVEQLRGIEGSRVRATYALLAKQYGVKWHGRNYDPKDWEKGDVVNRCISAATSCLYGISEAAILAAGYAPAIGFIHSGKPLSFVYDIADIIKFESVVPKAFEIAARHPAEPDKEVRLACRDIFRSSKLTGKLIPLIEEVLAAGEIEPPQPAPDMLPPAIPEPESLGDSGHRGHG | not soluble |
| MTGASRPPKSRRSAAAAPSPEGLTLDLERYVPAFITFIANKLSNSATAFYQGNFGVNVTEWRIMSLLAIEPGISAARICQVIGFNKGPVSRTLSDMQSRGLITIRVDPNDARTHSISLTGKGRATHDKVIVAALERERKLMSCLSADEQEVLIDLLRRLHNNLGAVTGETT | not soluble |
| MTGEIVTVVKGKVRWVEGEQFIGRIEGDKCSVILGEGGISPMKLLLLSVAGCTSYDVVMILKKMREPIKGLEVEIEGVRREEHPRIYKEVTIHYKIYGNVNEKKARRAIELSQEKYCSASAHLKLSGTDVKYTLEVIRDDEPPSQLNK | soluble |
